From US20210332145A1 (SINGLE CELL TECHNOLOGY, published 2021)

What was measured:
[1] = target: T1, human BCMA with a His tag (ACROBiosystems, Catalog No.: BCA-H522y) (human); test: SPR, Biacore T200
T1 construct: Bought His-tagged recombinant protein; also called huBCMA-His; Recombinant human BCMA
T1 chain: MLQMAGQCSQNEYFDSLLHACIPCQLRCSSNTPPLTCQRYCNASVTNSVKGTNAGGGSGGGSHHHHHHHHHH
Protocol: The binding affinity of select anti-BCMA was measured on a surface plasmon resonance (SPR) instrument, Biacore T200™, against human BCMA by a method known in the art.
In experiments performed essentially as described above, a subset of anti-human BCMA antibodies of the present disclosure bind human BCMA with a His tag (ACROBiosystems, Beijing, China, Catalog No.: BCA-H522y, SEQ ID NO:2) with affinity shown in Table 6.

[2] = target: T2, BCMA on cells (293T cells transfected with BCMA; H929, MM.1S and U266 cell lines expressing BCMA) (human, UniProt Q02223 1-184); test: flow cytometry, H929 cells
T2 construct: H929, MM.1S and U266 carry the native protein; also called B-cell Maturation Antigen; TNFRSF17
T2 sequence: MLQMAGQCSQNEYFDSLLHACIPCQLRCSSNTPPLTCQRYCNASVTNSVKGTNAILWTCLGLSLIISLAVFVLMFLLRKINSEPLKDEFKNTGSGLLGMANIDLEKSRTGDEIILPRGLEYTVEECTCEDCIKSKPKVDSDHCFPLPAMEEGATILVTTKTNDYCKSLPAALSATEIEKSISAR
Protocol: A cell line expressing BCMA, H929, was used to assess binding by anti-BCMA antibodies on the native protein on the cell surface by flow cytometry according to the known art. A subset of anti-human BCMA antibodies were assayed for binding to H929 and the fraction of cells bound the labeled antibody above background defined by control is shown in Table 8.

[3] = target: T2, BCMA on cells (293T cells transfected …); test: flow cytometry, H929 cells; remark: listed apart in the source
[4] = target: T1, human BCMA with a His tag …; test: ELISA, plate-coated human BCMA-His
Protocol: (§1) The recombinantly expressed antibodies were used to assess binding activity to BCMA of different species origins by conventional ELISA according to the known art. Recombinant human BCMA, cyno BCMA, and mouse BCMA were coated onto ELISA plates to detect binding at serially diluted concentrations of the anti-BCMA antibody preparations.
(§2) The ability for antibodies of the present disclosure to bind human BCMA was measured with an ELISA assay. For the BCMA binding assay, a 96-well plate (Nunc) is coated with human BCMA with a His tag (ACROBiosystems, Catalog No.: AC108P1-180611F2-Bulk, SEQ ID NO:2) at 0.2 μg/well overnight at 4° C. Wells are blocked for 2 h with blocking buffer (PBS containing 3% bovine serum albumin). Wells are washed three times with PBS containing 0.1% Tween-20. Anti-human BCMA antibodies of the present disclosure or control IgG (100 μL) is then added and incubated at room temperature for 1 h. After washing, the plate is incubated with 100 μL of goat anti-mouse IgG Fcγ Fragment Specific-HRP conjugate (Jackson ImmunoResearch) at room temperature for 1 h. The plates are washed and then incubated with 100 μL of 3,3′,5,5′-tetra-methylbenzidine. The absorbance at 450 nm is read on a microplate reader. The half maximal effective concentration (EC50) is calculated using GraphPad Prism 6 software.
In experiments performed essentially as described above, anti-human BCMA antibodies of the present disclosure bind human BCMA with a His tag (ACROBiosystems, Beijing, China, Catalog No.: BCA-H522y, SEQ ID NO:2) with an EC50 values shown in Table 3.

[5] = target: T3, mouse BCMA with a His tag (ACROBiosystems, Catalog No.: BCA-M52H3) (mouse); test: ELISA, plate-coated mouse BCMA-His
T3 construct: Bought His-tagged recombinant protein
T3 chain: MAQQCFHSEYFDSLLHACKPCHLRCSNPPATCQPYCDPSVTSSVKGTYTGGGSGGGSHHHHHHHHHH
Protocol: as §1, §2
In experiments performed essentially as described above, anti-human BCMA antibodies of the present disclosure bind mouse BCMA with a His tag (ACROBiosystems, Beijing, China, Catalog No.: BCA-M52H3, SEQ ID NO:109) with an EC50 values shown in Table 5.

[6] = target: T2, BCMA on cells (293T cells transfected …); test: flow cytometry, 293T cells transfected with BCMA, above parental 293T background
[7] = target: T4, cyno BCMA with a His tag (ACROBiosystems, Catalog No.: BCA-052H7) (cyno); test: ELISA, plate-coated cyno BCMA-His
T4 construct: Bought His-tagged recombinant protein
Protocol: as §1, §2
In experiments performed essentially as described above, anti-human BCMA antibodies of the present disclosure bind cyno BCMA with a His tag (ACROBiosystems, Beijing, China, Catalog No.: BCA-052H7, SEQ ID NO:110) with an EC50 values shown in Table 4.

T4 sequence (chain, as listed by the source limits assumed): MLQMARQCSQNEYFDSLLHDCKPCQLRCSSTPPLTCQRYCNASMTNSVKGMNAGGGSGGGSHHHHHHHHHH

Binder	Kd [1]	koff [1]	kon [1]	Positive (%) [2]	Mean fluorescent intensity [3]	EC50 [4]	EC50 [5]	Positive (%) [6]	EC50 [7]
SCT-Aa05(m/m) (antibody, V domains shown, Full IgG format: mouse IgG1 heavy chain constant region, mouse kappa light chain constant region) VH: EVKLLQSGGGLVQPGGSLKLSCAASGIDFSRYWMSWVRRAPGKGLEWIGEINPDSSTINYAPSLKDKFIISRDNAKNTLYLQMSKVRSEDTGLYYCASLYYDYEREYGMDYWGQGTSVTVSS VL: DIVMTQSQKFMSTSVGDRVSVTCKASQNVGTNVAWYQQKPGQSPKALIYSASYRFSGVPDRFTGSGSGTDFTLTISNVQSEDLAEYFCQQYNSYPYTFGGGTKLEIK	4.91 nM	0.00034 s⁻¹	69200 M⁻¹ s⁻¹	99.9%	2020	2.12 ng/mL	52.2 ng/mL	94.3%	–
SCT-Aa03(m/m) (antibody, V domains shown, Full IgG format: mouse IgG1 heavy chain constant region, mouse kappa light chain constant region) VH: EVKLLQSGGGLVQPGGSLKLSCAASGIDFSRYWMSWVRRAPGKGLEWIGEINPDSSTINYAPSLKDKFIISRDNAKNTLYLQMSKVRSEDTALYYCASFYYDYDHAMDYWGQGTSVTVSS VL: DIVMTQSQKFMSTSVGDRFSVTCKASQNVGTNVAWYQQKPGQSPKALIYSASYRFSGVPDRFTGSGSGTDFTLTISNVQSEDLAEYFCQQYNSYPFTFGSGTKLEIK	11.7 nM	0.00263 s⁻¹	224000 M⁻¹ s⁻¹	99.9%	3920	1.71 ng/mL	79.1 ng/mL	91.6%	–
SCT-Aa05(h/h) (antibody, V domains shown, Full IgG format, chimeric: human IgG1 heavy chain constant region, human kappa light chain constant region) VH: EVKLLQSGGGLVQPGGSLKLSCAASGIDFSRYWMSWVRRAPGKGLEWIGEINPDSSTINYAPSLKDKFIISRDNAKNTLYLQMSKVRSEDTGLYYCASLYYDYEREYGMDYWGQGTSVTVSS VL: DIVMTQSQKFMSTSVGDRVSVTCKASQNVGTNVAWYQQKPGQSPKALIYSASYRFSGVPDRFTGSGSGTDFTLTISNVQSEDLAEYFCQQYNSYPYTFGGGTKLEIK	9.93 nM	0.000995 s⁻¹	100000 M⁻¹ s⁻¹	96.5%	758	2.35 ng/mL	29.4 ng/mL	76.3%	–
SCT-Aa02(h/h) (antibody, V domains shown, Full IgG format, chimeric: human IgG1 heavy chain constant region, human kappa light chain constant region) VH: EVKLLQSGGGLVQPGGSLKLSCAASGIDFSRYWMSWVRRAPGKGLEWIGEINPDSSTINSAPSLEDKFIISRDNAKNTLYLQMSKVRSEDTALYYCASLYYDYERDYAMDYWGQGASVTVSS VL: DIVMTQSQKFMSTSVGDRVSVTCKASQNVGTNVAWYQQKPGQSPKALIYSASYRFSGVPDRFTGSGSGTDFTLTISNVQSEDLAEYFCQQYHSYPFTFGGGTKLEIK	1.22 nM	0.000374 s⁻¹	306000 M⁻¹ s⁻¹	99.2%	1280	2.85 ng/mL	–	81.9%	43.3 ng/mL
SCT-Aa04(h/h) (antibody, V domains shown, Full IgG format, chimeric: human IgG1 heavy chain constant region, human kappa light chain constant region) VH: EVKLLQSGGGLVQPGGSLKLSCAASGIDFSRYWMSWVRRAPGKGLEWIGEINPDSSTINYAPSLKDKFIISRDNAKNTLYLQMSKVRSEDTALYYCASFYYDYDRGAAMDYWGQGTSVTVSS VL: DIVMTQSQKFMSTSVGDRVSVTCKASQNVGTNVAWYQQKPGQSPKALIYSASYRYSGVPDRFTGSGSGTDFTLTISNVQSEDLAEYFCQQYNSYPYTFGGGTKLEIK	32.6 nM	0.034 s⁻¹	1.04e+06 M⁻¹ s⁻¹	96.5%	623	2.48 ng/mL	270 ng/mL	72%	–
SCT-Aa02(m/m) (antibody, V domains shown, Full IgG format: mouse IgG1 heavy chain constant region, mouse kappa light chain constant region) VH: EVKLLQSGGGLVQPGGSLKLSCAASGIDFSRYWMSWVRRAPGKGLEWIGEINPDSSTINSAPSLEDKFIISRDNAKNTLYLQMSKVRSEDTALYYCASLYYDYERDYAMDYWGQGASVTVSS VL: DIVMTQSQKFMSTSVGDRVSVTCKASQNVGTNVAWYQQKPGQSPKALIYSASYRFSGVPDRFTGSGSGTDFTLTISNVQSEDLAEYFCQQYHSYPFTFGGGTKLEIK	0.388 nM	0.000113 s⁻¹	292000 M⁻¹ s⁻¹	100%	4560	2.86 ng/mL	2.62 ng/mL	96.3%	89.1 ng/mL
SCT-Aa13(m/m) (antibody, V domains shown, Full IgG format: mouse IgG1 heavy chain constant region, mouse kappa light chain constant region) VH: QVQLQQSDAELVKPGASVKISCKVSGYTFTDYTIHWMKQRPEQGLEWIGYIYPRDGSTKYNEKFKGKATLTADKSSSTAYMQLNSLTSEDSAVYFCARWDYEGFDYWGQGTTLTVSS VL: DIVMTQSPATLSVTPGDRVSLSCRASQSISDYLHWYQQKSHESPRLLIKYASQSISGIPSRFSGSGSGSDFTLSINSVEPEDVGVYYCQNGHSFPPTFGSGTKLEIK	43.8 nM	0.0358 s⁻¹	817000 M⁻¹ s⁻¹	99.9%	2560	2.64 ng/mL	529 ng/mL	84.4%	174 ng/mL
SCT-Aa12(m/m) (antibody, V domains shown, Full IgG format: mouse IgG1 heavy chain constant region, mouse kappa light chain constant region) VH: QVQLQQSDAELVKPGASVKISCKVSGYTFTDYTIHWMKQRPEQGLEWIGYIFPSDGSTKYNEKFKGKATLTADKSSSTAYMQLNSLTSDDSAVYFCARWDYEGFDYWGQGTTLTVSS VL: DIVMTQSPATLSVTPGDRVSLSCRASQSISDYLNWYQQKSHESPRLLIKYASQSISGIPSRFSGSGSGSDFTLSINSVEPEDVGVYYCQNGHSFPPTFGSGTKLEIK	5.01 nM	0.011 s⁻¹	2.2e+06 M⁻¹ s⁻¹	99.9%	3480	1.7 ng/mL	10.7 ng/mL	85.7%	9740 ng/mL
SCT-Aa09(m/m) (antibody, V domains shown, Full IgG format: mouse IgG1 heavy chain constant region, mouse kappa light chain constant region) VH: QVQLQQSDAELVKPGASVKISCKVSGYTFTDHTIHWMKQRPEQGLEWIGYFYPRDDNTKYNEKFKGKATLTADRSSSTAYMQLNSLTSEDSAVYFCARWDYEGFDYWGQGTTLTVSS VL: DIVMTQSPATLSVTPGDRVSLSCRASQSIRDYLHWYQQKSHESPRLLIKYASQSISGIPSRFSGSGSGSDFTLSINSVEPEDVGVYYCQNGHSFPPTFGSGTKLEIK	76.6 nM	0.127 s⁻¹	1.66e+06 M⁻¹ s⁻¹	18.4%	102	1.96 ng/mL	–	16.9%	5570 ng/mL
SCT-Aa01(m/m) (antibody, V domains shown, Full IgG format: mouse IgG1 heavy chain constant region, mouse kappa light chain constant region) VH: DVQLQESGPGLVKPSQSLSLTCSVTGYSITSGYYWNWIRQFPGNKLEWMGYIRYDGSNNYNPSLKNRISITRDTSKNQFFLKLNSVTTEDTATYYCAPYDYDYAMDFWGQGTSVTVSS VL: DIQMTQSPASLSASVGETVTITCRASGNIHNYLAWYQQKQGKSPQLLVYNAKTLAHGVPSRFSGSGSGTQYSLKITSLQPEDFGTYYCQHFWSTPFTFGSGTKLEIK	68.6 nM	0.0175 s⁻¹	255000 M⁻¹ s⁻¹	99.8%	2090	2.92 ng/mL	–	48.2%	5.7 ng/mL
